Laboratory results taken from publication PMC13423832.

B1: AP-Nogo66-His, wild type (alkaline phosphatase fusion of the NOGO66 domain of reticulon-4) [human] / RTNR-FLAG-His (Nogo66 receptor) on HEK293T cells [not stated] (parent)
chain 1: RIYKGVIQAIQKSDEGHPFRAYLESEVAISEELVQKYSNSALGHVNCTIKELRRLFLVDDLVDSLK
chain 2: CPGACVCYNEPKVTTSCPQQGLQAVPVGIPAASQRIFLHGNRISHVPAASFRACRNLTILWLHSNVLARIDAAAFTGLALLEQLDLSDNAQLRSVDPATFHGLGRLHTLHLDRCGLQELGPGLFRGLAALQYLYLQDNALQALPDDTFRDLGNLTHLFLHGNRISSVPERAFRGLHSLDRLLLHQNRVAHVHPHAFRDLGRLMTLYLFANNLSALPTEALAPLRALQYLRLNDNPWVCDCRARPLWAWLQKFRGSSSEVPCSLPQRLAGRDLKRLAANDLQGCAVATGPYHPIWTGRATDEEPLGLPKCCQPDAADKASVLEPGRPASAGNALKGRVPPGDSPPGNGSGPRHINDSPFGTLPGSAEPPLTAVRPEGSEPPGFPTSGPRRRPGCSRKNRTRSHCRLGQAGSGGGGTGDSEGS

Variants of: B1
Assay: AP (alkaline phosphatase fusion) receptor binding assay on HEK293T cells overexpressing RTNR
Settings: with RTNR-FLAG-His (Nogo66 receptor) on HEK293T cells; RTNR OE HEK293T cells; n = 3 biological replicates, mean ± s.d.; parent: 0.00087; read off a plot

Row | response (min^-1 (absorbance/time)) | Variant
1 | 0.0015 | chain 1 RIYKGVIQAIQKSDEGHPFRAYLESEVAISEELVQKYSNSALGHVNWTIKELRRLFLVDDLVDSLK [chain 1 C47W]
